{
  "source": "paper PMC4038590",
  "about": "(PLoS ONE, 2014)",
  "binders": {"B1": {"name": "Arabidopsis thaliana Med25 ACtivator Interaction Domain (aMed25-ACID), Med25_(551-680) (domain or fragment, UniProt Q7XYY2 551-680, looked up)", "chain": "TSQSKYVKVWEGNLSGQRQGQPVLITRLEGYRSASASDSLAANWPPTMQIVRLISQDHMNNKQYVGKADFLVFRAMSQHGFLGQLQDKKLCAVIQLPSQTLLLSVSDKACRLIGMLFPGDMVVFKPQIPN", "notes": "source: 15N-labelled in M9 medium for NMR"}, "B2": {"name": "6 x his-tagged Dreb2a_(168-335) (Dehydration responsive element binding protein 2A, Med25-binding domain 168-253 and activation domain 254-335) (domain or fragment, Arabidopsis thaliana, UniProt O82132 168-335, looked up)", "chain": "DCESKPFSGGVEPMYCLENGAEEMKRGVKADKHWLSEFEHNYWSDILKEKEKQKEQGIVETCQQQQQDSLSVADYGWPNDVDQSHLDSSDMFDVDELLRDLNGDDVFAGLNQDRYPGNSVANGSYRPESQQSGFDPLQSLNYGIPPFQLEGKDGNGFFDDLSYLDLEN"}},
  "conditions_in_all_cases": "both partners purified",
  "key": {"[1]": {"target": "B2", "assay": "ITC"}, "[2]": {"target": "B1", "assay": "ITC"}, "[3]": {"target": "B1", "assay": "SPR"}, "[4]": {"target": "T1, human Med25 ACtivator Interaction Domain (hMed25-ACID), 6 x his-tagged human Med25_(394-543) (human, UniProt Q71SY5 394-543)", "T1 construct": "source: 15N-labelled in M9 medium for NMR", "T1 sequence (looked up)": "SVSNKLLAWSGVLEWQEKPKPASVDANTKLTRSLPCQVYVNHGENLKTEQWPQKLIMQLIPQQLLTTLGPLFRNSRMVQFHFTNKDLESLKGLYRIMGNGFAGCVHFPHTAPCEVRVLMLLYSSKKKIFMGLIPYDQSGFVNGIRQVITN", "assay": "SPR"}},
  "data": [
    {"binder": "B1", "values": [
      {"measurement": "Ka", "setting": "[1]", "result": 328000, "unit": "M⁻¹"},
      {"measurement": "Kd", "setting": "[1]", "result": 3000, "unit": "nM"}
    ]},
    {"binder": "B2", "values": [
      {"measurement": "dH", "setting": "[2]", "result": -21.9, "unit": "kcal/mol"}
    ]},
    {"binder": "TAPPTDVSLGDELHLDGEDVAMAHADALDDFDLDMLGDGDS (domain or fragment, source: E. coli BL21 pLysS, purified (glutathione-sepharose 4B))", "values": [
      {"measurement": "Kd", "setting": "[3]", "result": 2400, "unit": "nM"},
      {"measurement": "Kd", "setting": "[4]", "result": 5400, "unit": "nM"}
    ]},
    {"binder": "GST-VP16-TAD (Herpes simplex virus VP16 transcription activation domain, both subdomains, residues 427-485) (domain or fragment, source: E. coli BL21 pLysS, purified (glutathione-sepharose 4B)) DGEDVAMAHADALDDFDLDMLGDGDSPGPGFTPHDSAPYGALDMADFEFEQMFTDALGI", "values": [
      {"measurement": "Kd", "setting": "[3]", "result": 1800, "unit": "nM"},
      {"measurement": "Kd", "setting": "[4]", "result": 2800, "unit": "nM"}
    ]}
  ]
}
